The values below come from patent publication US20160115235A1 (ARES TRADING S A, published 2016).

For test [1], the target named is T1, human CXCR5 (human, UniProt P32302 1-372).
T1 construct: Full length, on stably transfected cells (HEK-293, L1.2, R1610 and others), made with or without a C-terminal tag, or native on primary human B cells; also called hCXCR5; BLR-1
T1 sequence: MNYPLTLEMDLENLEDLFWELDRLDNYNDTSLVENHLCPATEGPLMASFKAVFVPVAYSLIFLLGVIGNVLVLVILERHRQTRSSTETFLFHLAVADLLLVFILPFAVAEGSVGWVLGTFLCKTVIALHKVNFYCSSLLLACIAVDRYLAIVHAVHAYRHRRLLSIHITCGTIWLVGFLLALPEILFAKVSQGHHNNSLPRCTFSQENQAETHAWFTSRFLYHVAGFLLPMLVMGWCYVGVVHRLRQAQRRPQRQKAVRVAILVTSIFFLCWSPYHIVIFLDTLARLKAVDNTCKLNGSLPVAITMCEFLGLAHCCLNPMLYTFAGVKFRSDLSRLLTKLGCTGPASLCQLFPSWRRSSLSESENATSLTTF
The test can be described thus: flow cytometry, Alexa Fluor 647 labelled mAb on HEK-293 cells stably transfected with human CXCR5; 40C01-VH1-Vk3, Alexa Fluor 647 labelled, HEK-293 cells with human CXCR5. The procedure: (§1) Anti-CXCR5 40C01-VH1-Vk3 and VH2-Vk3 variants were labelled with Alexa Fluor 647 dye using monoclonal antibody labelling kit from Invitrogen (Cat #A20186). Binding of labelled mAbs to HEK-293 cells stably transfected with human CXCR5 was examined by a direct immunofluorescence assay. A total of 1×10⁵ stable HEK-293 cells over-expressing human CXCR5 were incubated with 1 in 3 serially diluted Alexa Fluor 647 mAbs ranging from 60 μg/ml to 0.33 ng/ml in FACS buffer (PBS containing 1% BSA and 0.1% NaN₃) for 1 h on ice. Cells were washed twice with FACS buffer and analyzed on FACSCalbur flow cytometer (BD Biosciences).
A general note: A flow cytometer gives signals particle by particle.

Test [2] concerns the target T2, human CXCR2 (human, UniProt P25025 1-360).
T2 construct: whole, on cells; Native on the granulocyte population of human whole blood
T2 sequence (looked up): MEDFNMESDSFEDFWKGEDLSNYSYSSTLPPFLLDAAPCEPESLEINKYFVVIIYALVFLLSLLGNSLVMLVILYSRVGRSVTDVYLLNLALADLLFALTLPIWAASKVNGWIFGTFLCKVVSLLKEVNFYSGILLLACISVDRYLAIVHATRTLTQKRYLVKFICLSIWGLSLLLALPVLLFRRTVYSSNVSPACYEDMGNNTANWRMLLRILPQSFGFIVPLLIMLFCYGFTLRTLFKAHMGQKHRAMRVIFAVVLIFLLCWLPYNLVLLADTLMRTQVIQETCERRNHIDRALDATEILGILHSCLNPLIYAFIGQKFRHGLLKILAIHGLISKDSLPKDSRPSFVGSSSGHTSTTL
Description: flow cytometry, Alexa-Fluor 647 labelled mAb in human whole blood. The procedure: (§2) 40C01-VH1-Vk3 and VH2-Vk3 variants were labelled with Alexa Fluor 647 dye using monoclonal antibody labelling kit from Invitrogen (Cat #A20186). Blood was collected in sodium-heparinised tubes and rested for 2 h at RT. Sodium azide (NaN₃) was then added to whole blood to a final concentration of 0.01%. Serial 1 in 3 dilutions of Alexa-Fluor 647 labelled-mAbs ranging from 60 μg/ml to 3 ng/ml were added to blood samples and incubated for 30 min at RT. Phycoerythrin (PE) labelled anti-CD19 (BD Pharmingen, cat#555413) and anti-human CXCR2 (R&D Systems, cat #FAB331P) mAbs and their respective isotype controls were used for gating B cells and monitoring CXCR2 expression on granulocytes, respectively. Labelled red blood cells were then lysed using the human erythrocyte lysing kit from R&D Systems (Cat # WL1000) and the blood cells resuspended in FACS buffer (PBS-1% BSA, 0.1% NaN₃) and analysed by flow cytometry on FACS Calibur 3 (BD Biosciences). The EC₅₀ and ECB, values were calculated by plotting the FL4 fluorescence (emission of Alexa Fluor 647 dye) as a function of the antibody concentration. […] No binding of the two 40C01 variants was detected on the granulocyte population which expresses CXCR2 (neutrophils).

Test [3] deals with T1, human CXCR5. The test can be described thus: flow cytometry, Alexa Fluor 647 labelled mAb on CD19-gated human B cells in whole blood. How it is done: as §2
The target of test [4] is T1, human CXCR5. The test can be described thus: flow cytometry, Alexa Fluor 647 labelled mAb on HEK-293 cells stably transfected with human CXCR5; 40C01-VH2-Vk3, Alexa Fluor 647 labelled, HEK-293 cells with human CXCR5. How it is done:
as §1

For test [5], the target named is T1, human CXCR5. Description: cell-based or functional assay.
The target in test [6] is T1, human CXCR5. Description: cell-based or functional assay. This is another data set of the same source.
Test [7] concerns the target T1, human CXCR5. Description: KinExA, IgG2 mAb equilibrated with HEK-293 cells expressing human CXCR5, n-curve analysis. The procedure: Kinetic Exclusion Assay (KinExA) was used to determine the concentration of the free antibody that remains in solution after equilibrium has been established between the fully human IgG2 (subtype HC2h, as described in WO2009010290) anti-CXCR5 40C01 antibody variants and human CXCR5 expressed on the cell surface of stably transfected HEK-293 cells, from which the equilibrium dissociation constant (Kd) was determined. This method provides a true measure of the affinity/avidity of the antibody to integral membrane proteins like GPCRs.
HEK-293 cells, stably expressing human CXCR5, an integral membrane protein with 7 trans membrane domains, were harvested using Accutase cell detachment solution, resuspended at 2×10⁶ cells/ml and serially diluted 1 in 2 in 15 falcon tubes using KinExA buffer (PBS containing 1 mg/ml BSA and 0.02% NaN₃). An appropriate constant concentration of purified mAb was made in KinExA buffer and an equal volume of the mAb was mixed with the serially diluted cells. […] The cells were then centrifuged and the free mAb present in the supernatant was measured by KinExA using PMMA beads (Sapidyne Instruments, cat#440198) coated with goat anti-human IgG (H+L) (Jackson ImmunoResearch, cat#109-005-003) and DyLight 649-conjugated anti-human secondary antibody (Jackson ImmunoResearch, Goat anti-human Fc, cat#109-495-098) used at 1 μg/ml in KinExA buffer. […]
On the technique in general: Kinetic exclusion samples the free partner from a solution-phase mixture.

Test [8] addresses T1, human CXCR5. The test can be described thus: cell-based or functional assay. The source holds these as a separate data set.
Test [9] concerns the target T3, cynomolgus monkey (Macaca fascicularis) CXCR5 (cynomolgus monkey (Macaca fascicularis), UniProt P32302 1-372 (human entry)).
T3 chain: T1 sequence with W19L, L21F, R23K, L24F, L180F, G193A, H195P, A285V, K295E, R357K
Description: cell-based or functional assay.

Positions count from the first letter of the chain named.

B1: anti-CXCR5 40C01-VH1-Vk3 variant (isotype not stated in the example) (antibody, V domains shown)
VH: EVQLLESGGGLVQPGGSLRLSCAASGFTFSRYVMVWVRQAPGKGLEWVSGISPSGGVTRYAASVKGRFTISRDNSKNTLYLQMNSLRAEDTAVYYCARIRKEMTTISYFFDYWGQGTLVTVSS
VL: DIQMTQSPSSLSASVGDRVTITCRASQGVDAYVAWYQQKPGKVPKLLIYSTSTLASGVPSRFSGSGSGTDFTLTISSLQPEDVATYYCQSHNAAVVTFGQGTRLEIK
notes: also called Alexa-Fluor 647 labelled 40C01-VH1-Vk3
Consider B1, for which the EC50 in test [1] is 2.26 nM; in test [3], 1.92 nM. Further, in test [2], the binding result is “no binding (tested: 60 µg/ml to 3 ng/ml tested)”.

B2: anti-CXCR5 40C01-VH2-Vk3 variant (isotype not stated in the example) (antibody, V domains shown)
VH: B1 VH with Y32S, M103K
VL: B1 VL
notes: also called Alexa-Fluor 647 labelled 40C01-VH2-Vk3
With B2, the binding result in test [2] is listed as “no binding (tested: 60 µg/ml to 3 ng/ml tested)”. Also, the values for the EC50 in test [3] and in [4] were 7.22 nM and 4.6 nM, respectively.

B3: anti-CXCR5 40C01-VH2-Vk3 as IgG2 (antibody)
heavy: EVQLLESGGGLVQPGGSLRLSCAASGFTFSRSVMVWVRQAPGKGLEWVSGISPSGGVTRYAASVKGRFTISRDNSKNTLYLQMNSLRAEDTAVYYCARIRKEKTTISYFFDYWGQGTLVTVSSASTKGPSVFPLAPCSRSTSESTAALGCLVKDYFPEPVTVSWNSGALTSGVHTFPAVLQSSGLYSLSSVVTVPSSNFGTQTYTCNVDHKPSNTKVDKTVEPKSSDKTHTCPPCPAPPVAGPSVFLFPPKPKDTLMISRTPEVTCVVVDVSHEDPEVQFNWYVDGVEVHNAKTKPREEQAQSTFRVVSVLTVVHQDWLNGKEYKCKVSNKGLPAPIEKTISKTKGQPREPQVYTLPPSREEMTKNQVSLTCLVKGFYPSDIAVEWESNGQPENNYKTTPPMLDSDGSFFLYSKLTVDKSRWQQGNVFSCSVMHEALHNHYTQKSLSLSPG
light: DIQMTQSPSSLSASVGDRVTITCRASQGVDAYVAWYQQKPGKVPKLLIYSTSTLASGVPSRFSGSGSGTDFTLTISSLQPEDVATYYCQSHNAAVVTFGQGTRLEIKRTVAAPSVFIFPPSDEQLKSGTASVVCLLNNFYPREAKVQWKVDNALQSGNSQESVTEQDSKDSTYSLSSTLTLSKADYEKHKVYACEVTHQGLSSPVTKSFNRGEC
notes: also called VH2-Vk3 (isotype 2)
B3: in [5], the “efficacy of inhibition of CXCL13-stimulated L1.2-CXCR5 chemotaxis” value turned out to be 100%. Also, the “IC50, inhibition of CXCL13-induced L1.2-CXCR5 chemotaxis” value in test [6] came out at 0.108 nM. In test [7], this molecule came in with a Kd of 0.047 nM. Further, the results for the “IC50, inhibition of ERK phosphorylation in whole blood (B cells, CXCL13-stimulated)” value in test [8] and in [9] were 0.88 nM and 1.57 nM, respectively.

For orientation: EC50 means the concentration giving half of the maximal effect. Broadly, the Kd is the concentration at which binding is half-saturated.
